The results in this text go back to patent publication US20060204957A1 (published 2006).

The labels stand for the following.
T1: bifunctional ATP sulfurylase/adenosine 5'-phosphosulfate (APS) kinase (UniProt O43252 1-624, limits assumed)
T1 construct: Two-hybrid isolate
T1 sequence (looked up): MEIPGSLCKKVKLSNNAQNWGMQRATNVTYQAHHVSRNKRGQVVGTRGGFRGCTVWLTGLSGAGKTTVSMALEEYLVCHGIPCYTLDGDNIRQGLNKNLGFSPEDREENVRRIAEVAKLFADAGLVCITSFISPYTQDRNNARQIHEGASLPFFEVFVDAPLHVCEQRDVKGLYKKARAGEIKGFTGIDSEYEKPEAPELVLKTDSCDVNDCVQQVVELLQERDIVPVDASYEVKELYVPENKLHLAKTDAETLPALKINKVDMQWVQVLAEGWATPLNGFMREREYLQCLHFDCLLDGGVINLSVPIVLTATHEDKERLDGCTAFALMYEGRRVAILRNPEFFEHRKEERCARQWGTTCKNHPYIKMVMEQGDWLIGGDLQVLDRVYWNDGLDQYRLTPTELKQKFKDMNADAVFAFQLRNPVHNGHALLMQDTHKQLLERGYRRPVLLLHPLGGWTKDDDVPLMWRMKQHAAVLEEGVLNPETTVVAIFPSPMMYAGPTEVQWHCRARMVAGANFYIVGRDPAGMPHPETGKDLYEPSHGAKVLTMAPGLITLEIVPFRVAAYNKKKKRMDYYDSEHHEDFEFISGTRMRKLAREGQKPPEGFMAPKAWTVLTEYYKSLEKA

T2: Estrogen Receptor α (ER) (UniProt P03372 1-595)
T2 construct: Endogenous intracellular receptor in breast cancer cell lysates, and ER where no construct is named; also called ERα; endogenous ER
T2 sequence (looked up): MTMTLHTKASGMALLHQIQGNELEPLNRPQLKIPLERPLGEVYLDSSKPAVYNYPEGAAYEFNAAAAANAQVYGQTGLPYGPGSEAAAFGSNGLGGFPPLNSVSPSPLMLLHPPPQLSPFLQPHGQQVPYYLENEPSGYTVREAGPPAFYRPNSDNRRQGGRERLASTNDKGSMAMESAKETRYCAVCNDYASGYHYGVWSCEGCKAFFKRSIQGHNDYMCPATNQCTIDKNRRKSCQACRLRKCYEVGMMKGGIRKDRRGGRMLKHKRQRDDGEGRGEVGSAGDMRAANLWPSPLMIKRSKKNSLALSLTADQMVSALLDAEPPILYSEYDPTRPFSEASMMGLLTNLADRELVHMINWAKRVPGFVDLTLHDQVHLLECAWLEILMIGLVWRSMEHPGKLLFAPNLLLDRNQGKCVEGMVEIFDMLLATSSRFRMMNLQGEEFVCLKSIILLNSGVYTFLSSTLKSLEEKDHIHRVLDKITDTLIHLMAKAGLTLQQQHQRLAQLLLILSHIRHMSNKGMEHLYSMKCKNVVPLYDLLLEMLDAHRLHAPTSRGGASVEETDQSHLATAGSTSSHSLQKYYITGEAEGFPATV

T3: GAD-ERα (UniProt P03372 1-536)
T3 construct: range 1-536; Yeast two-hybrid prey; also called GAD-ERα amino acids 1-536
T3 sequence (looked up): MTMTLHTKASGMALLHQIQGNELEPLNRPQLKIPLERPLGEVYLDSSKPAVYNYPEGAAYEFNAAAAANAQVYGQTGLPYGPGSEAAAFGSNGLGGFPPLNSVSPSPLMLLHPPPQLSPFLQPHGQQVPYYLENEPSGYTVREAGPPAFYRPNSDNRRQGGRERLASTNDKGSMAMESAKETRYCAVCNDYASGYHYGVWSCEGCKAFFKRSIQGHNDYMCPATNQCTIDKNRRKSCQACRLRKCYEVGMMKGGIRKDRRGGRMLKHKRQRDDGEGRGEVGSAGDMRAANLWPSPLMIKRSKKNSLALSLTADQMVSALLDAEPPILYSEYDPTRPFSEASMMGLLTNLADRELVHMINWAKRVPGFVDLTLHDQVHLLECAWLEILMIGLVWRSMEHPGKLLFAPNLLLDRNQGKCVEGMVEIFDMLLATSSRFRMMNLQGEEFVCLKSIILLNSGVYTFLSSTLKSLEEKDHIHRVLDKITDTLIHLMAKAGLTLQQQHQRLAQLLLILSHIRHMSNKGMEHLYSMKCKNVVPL

B1: Casein Kinase 1, γ2 (enzyme)
chain: not shown
notes: Two-hybrid isolate; also called clone S55-1
B2: LMO4 (other, UniProt P61968 1-165, looked up)
chain: MVNPGSSSQPPPVTAGSLSWKRCAGCGGKIADRFLLYAMDSYWHSRCLKCSCCQAQLGDIGTSCYTKSGMILCRNDYIRLFGNSGACSACGQSIPASELVMRAQGNVYHLKCFTCSTCRNRLVPGDRFHYINGSLFCEHDRPTALINGHLNSLQSNPLLPDQKVC
notes: Two-hybrid isolate; also called LIM 04; LIM04
B3: MTA1s (other)
chain: MAANMYRVGDYVYFENSSSNPYLIRRIEELNKTANGNVEAKVVCFYRRRDISSTLIALADKHATLSVCYKAGPGADNGEEGEIEEEMENPEMVDLPEKLKHQLRHRELFLSRQLESLPATHIRGKCSVTLLNETESLKSYLEREDFFFYSLVYDPQQKTLLADKGEIRVGNRYQADITDLLKEGEEDGRDQSRLETQVWEAHNPLTDKQIDQFLVVARSVGTFARALDCSSSVRQPSLHMSAAAASRDITLFHAMDTLHKNIYDISKAISALVPQGGPVLCRDEMEEWSASEANLFEEALEKYGKDFTDIQQDFLPWKSLTSIIEYYYMWKTTDRYVQQKRLKAAEAESKLKQVYIPNYNKPNPNQISVNNVKAGVVNGTGAPGQSPGAGRACESCYMSSLRILLDILEEIWWLENANPVRWREARTKPQ
notes: also called MTA1s (short); S2 clone
B4: T7-MTA1sstop (other, not shown: small tags and cut ends)
chain: MAANMYRVGDYVYFENSSSNPYLIRRIEELNKTANGNVEAKVVCFYRRRDISSTLIALADKHATLSVCYKAGPGADNGEEGEIEEEMENPEMVDLPEKLKHQLRHRELFLSRQLESLPATHIRGKCSVTLLNETESLKSYLEREDFFFYSLVYDPQQKTLLADKGEIRVGNRYQADITDLLKEGEEDGRDQSRLETQVWEAHNPLTDKQIDQFLVVARSVGTFARALDCSSSVRQPSLHMSAAAASRDITLFHAMDTLHKNIYDISKAISALVPQGGPVLCRDEMEEWSASEANLFEEALEKYGKDFTDIQQDFLPWKSLTSIIEYYYMWKTTDRYVQQKRLKAAEAESKLKQVYIPNYNKPNPNQISVNNVKAGVVNGTGAPGQSPGAGRACESCY
notes: Expressed in MCF-7 cells for immunoprecipitation with T7-mAb; also called T7-tagged MTA1s-stop
B5: MTA1s-stop (other)
chain: B4 chain
B6: T7-MTA1sdel (other, not shown: small tags and cut ends)
chain: MAANMYRVGDYVYFENSSSNPYLIRRIEELNKTANGNVEAKVVCFYRRRDISSTLIALADKHATLSVCYKAGPGADNGEEGEIEEEMENPEMVDLPEKLKHQLRHRELFLSRQLESLPATHIRGKCSVTLLNETESLKSYLEREDFFFYSLVYDPQQKTLLADKGEIRVGNRYQADITDLLKEGEEDGRDQSRLETQVWEAHNPLTDKQIDQFLVVARSVGTFARALDCSSSVRQPSLHMSAAAASRDITLFHAMDTLHKNIYDISKAISALVPQGGPVLCRDEMEEWSASEANLFEEALEKYGKDFTDIQQDFLPWKSLTSIIEYYYMWKTTDRYVQQKRLKAAEAESKLKQVYIPNYNKPNPNQISVNNVKAGVVNGTGAPGQSPGAGRACESCYMSSDILEEIWWLENANPVRWREARTKPQ
notes: Expressed in MCF-7 cells for immunoprecipitation with T7-mAb; also called T7-tagged MTA1s-del
B7: MTA1s-del (other)
chain: B6 chain

The experiment “MTA1s” concerns the target B3. Briefly: FIG. 14 legend.
In experiment [1] the target is T4, Homologs to eukaryotic translation initiation factor 3, subunit 6 (48 kD) (UniProt P60228 1-445, limits assumed).
T4 construct: Two-hybrid isolate; also called Cone S 64-1
T4 sequence (P60228 whole entry): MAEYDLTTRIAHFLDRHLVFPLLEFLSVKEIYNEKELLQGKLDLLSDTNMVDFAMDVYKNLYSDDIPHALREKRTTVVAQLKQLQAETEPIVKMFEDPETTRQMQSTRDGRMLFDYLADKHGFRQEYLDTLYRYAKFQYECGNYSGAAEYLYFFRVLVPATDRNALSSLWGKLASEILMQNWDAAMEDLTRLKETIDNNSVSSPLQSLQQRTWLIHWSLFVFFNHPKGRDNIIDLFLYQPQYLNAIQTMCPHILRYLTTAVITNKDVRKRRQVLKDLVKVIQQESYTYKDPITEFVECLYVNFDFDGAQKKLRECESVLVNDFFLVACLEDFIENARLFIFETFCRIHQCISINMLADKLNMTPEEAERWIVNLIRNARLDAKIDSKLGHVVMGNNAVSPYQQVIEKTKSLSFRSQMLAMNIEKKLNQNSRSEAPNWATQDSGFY
Description: FIG. 14 legend.

The target in experiment [2] is T1, bifunctional ATP sulfurylase/adenosine …. Briefly: yeast two-hybrid screen for MTA1s-interacting proteins.
The next experiment has as its target T2, Estrogen Receptor α (ER). Briefly: immunoprecipitation with T7-mAb, immunoblot for ERα (FIG. 4D).
The target in the next experiment is T3, GAD-ERα. Description: yeast two-hybrid (FIG. 4B).

B1: the binding result with MTA1s was “binds”.

With B2, the binding result with MTA1s was “binds”.

For B3, the binding result in experiment [1] and in experiment [2] was “binds” throughout.

As for B4, in the experiment with Estrogen Receptor α (ER), the binding result was “no binding”.

As to B5, the binding result with GAD-ERα is on record as “no binding”.

Take B6: the binding result in the experiment with Estrogen Receptor α (ER) is reported as “no binding”.

On to B7, for which, in the experiment with GAD-ERα, the binding result was “no binding”.
